T1: Boi1 SH3 (BOI1_YEAST), P38041
T1 chain: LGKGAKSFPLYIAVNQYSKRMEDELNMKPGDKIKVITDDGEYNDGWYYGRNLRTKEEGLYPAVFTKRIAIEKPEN

T2: Yfr024 SH3 (LSB3_YEAST), P43603
T2 chain: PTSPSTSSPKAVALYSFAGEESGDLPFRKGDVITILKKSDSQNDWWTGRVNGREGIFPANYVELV

T3: Yhr016c SH3 (YSC84_YEAST), P32793
T3 chain: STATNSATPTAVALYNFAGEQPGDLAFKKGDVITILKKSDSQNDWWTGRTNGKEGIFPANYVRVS

T4: Rvs167 SH3 (RV167_YEAST), P39743
T4 chain: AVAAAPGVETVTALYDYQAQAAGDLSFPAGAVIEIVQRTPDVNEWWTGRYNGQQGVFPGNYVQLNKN

T5: Boi2 SH3 (BOI2_YEAST), P39969
T5 chain: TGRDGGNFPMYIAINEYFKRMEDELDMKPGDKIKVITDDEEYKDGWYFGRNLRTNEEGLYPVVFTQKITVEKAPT


How the values were obtained:
Test in all cases: SPOT array
[1] = molecular target: T1, Boi1 SH3 (BOI1_YEAST), P38041
[2] = molecular target: T2, Yfr024 SH3 (LSB3_YEAST), P43603
[3] = molecular target: T3, Yhr016c SH3 (YSC84_YEAST), P32793
[4] = molecular target: T4, Rvs167 SH3 (RV167_YEAST), P39743
[5] = molecular target: T5, Boi2 SH3 (BOI2_YEAST), P39969

Binder | normalised SPOT signal, Boehringer light units (BLU); mean over the file's lines of this peptide [1] | normalised SPOT signal, Boehringer light units (BLU); mean over the file's lines of this peptide [2] | normalised SPOT signal, Boehringer light units (BLU); mean over the file's lines of this peptide [3] | normalised SPOT signal, Boehringer light units (BLU); mean over the file's lines of this peptide [4] | normalised SPOT signal, Boehringer light units (BLU); mean over the file's lines of this peptide [5]
FLQPVDPVKLDIPF [YLR399C 173-186] | 92.6 | 0 | 117 | 56.8 | 24.4
FLSPGKPSKGTSLH [YML005W 163-176] | 96.5 | 437 | 243 | 58.9 | 34.6
FNGPEPPIKRLKKA [YNL286W 148-161] | 255 | 625 | 42.4 | 70.5 | 11.4
FPDPNNPSKVQIRM [YAL051W 375-388] | 103 | 98.1 | 122 | 28 | 21.5
FPFPTPPDRVALSK [YMR128W 865-878] | 52.4 | 834 | 358 | 114 | 103
FPYPFKPSRVGVKY [YGL131C 440-453] | 178 | 2790 | 260 | 118 | 81.9
FPYPGNPLKIINYE [YGR233C 862-875] | 125 | 49.4 | 0 | 87 | 39
FQPPPKPFRRSQSS [YBR108W 657-670] | 800 | 45100 | 51000 | 8580 | 308
FREPDLPRKGLLED [YJR054W 476-489] | 133 | 1350 | 116 | 33.2 | 41.4
FRFPRLPQKKKEEL [YGL130W 106-119] | 105 | 19500 | 1370 | 1200 | 172
FSKPQEPVKAEEAE [YCR088W 393-406] | 76.7 | 276 | 773 | 27.2 | 23.9
FTAPPVPTKKKSKN [YDR517W 316-329] | 346 | 9160 | 216 | 86.4 | 44.8
FVIPGVPSKSYSLF [YGR065C 310-323] | 94 | 44.7 | 66.7 | 0 | 48.3
FVLPSLPRKNTYKV [YOR034C 343-356] | 96.3 | 4240 | 75.7 | 16.4 | 20.4
FVPPNLPMRRFKEI [YNL047C 421-434] | 11000 | 25900 | 23200 | 11800 | 160
FVSPRIPSRIVKNG [YOR086C 892-905] | 898 | 34100 | 9870 | 10100 | 1080
FWNPENPYKFVHPR [YEL011W 171-184] | 169 | 524 | 248 | 67.7 | 55.6
FYEPLDPQKDKDMT [YJL155C 176-189] | 71.3 | 121 | 129 | 14.1 | 19.8
FYYPESPTKNLRPR [YML119W 56-69] | 867 | 292 | 36.3 | 28.6 | 44.1
GAIPRGPKKDDASF [YPR161C 424-437] | 94.3 | 225 | 236 | 48.1 | 5.7
GAKPKIPSKLYQSV [YBR138C 124-137] | 68.4 | 313 | -0 | 42.7 | 76.3
GAPPPPPHKDHLSD [YMR280C 206-219] | 104 | 47.2 | 154 | 75.6 | 17.2

— PMC314469, “Protein Interaction Networks by Proteome Peptide Scanning” (PLoS Biology, 2004)
